Test results from article PMC3553976.

Biological target: U2AF65 (UniProt P26368)
Assay: NMR binding data
Details: reference: non-phosphorylated SF1 construct; sites S80,S82

splicing factor 1 (SF1) (from UniProt Q15637) KIS-phosphorylated SF1 construct
binding against the reference: same
